Assay results reported in paper PMC10352132 (Nature Structural & Molecular Biology, 2023).

Target: wild-type Rattus norvegicus GABA transporter 1 (rGAT1WT) (Rattus norvegicus, UniProt P23978)
Conditions: one partner purified

B1: Fab 9D5 (Fab, V domains shown)
VH: EVQLVESGGGLVKPGGSLKLSCAASGFTFSSYAMSWVRQSPEKRLEWVAEISSGGRYIYYSDTVTGRFTISRDNARNILHLEMSSLRSEDTAMYYCARGEVRQRGFDYWGQGTTLTVSS
VL: ENVLTQSPAIMSTSPGEKVTMTCRASSSVGSSYLHWYQQKSGASPKLWIYSTSNLASGVPARFSGSGSGTSYSLTISSVEAEDAATYYCQQFSGYPLTFGSGTKLEMK
notes: heavy chain of Fab 9D5; light chain of Fab 9D5; Heavy and light chains were synthesized and cloned into pFastBac Dual with an N-terminal GP64 signal peptide; Only VH and VL are modeled in PDB 8GNK; also called 9D5 Fab; 9D5-Fab; source: Sf9 cells, baculovirus, exported into the media; purified (Ni-NTA, SEC on Superdex 75)
binding result: no binding (tested: 50 ng of 9D5)
